To fix the notation:
B1: unmethylated dsDNA (oTMN67/oTMN68) (dsDNA)
DNA 1: CAAAACAGGATATGAAATAGTATTGGACGAGAGCTTTTTGGTGGCTTATACTATAG
DNA 2: CTATAGTATAAGCCACCAAAAAGCTCTCGTCCAATACTATTTCATATCCTGTTTTG
B2: RNA-DNA hybrid (oTMN67/oJRR271) (DNA:RNA)
DNA: CAAAACAGGATATGAAATAGTATTGGACGAGAGCTTTTTGGTGGCTTATACTATAG
RNA: CUAUAGUAUAAGCCACCAAAAAGCUCUCGUCCAAUACUAUUUCAUAUCCUGUUUUG
modifications: strand 2 is RNA
B3: methylated dsDNA (oNLF001/oTMN68) (dsDNA)
DNA 1: CAAAACAGGATATGAAATAGTATTGGACGAGAGCTTTTTGGTGGCTTATACTATAG
DNA 2: CTATAGTATAAGCCACCAAAAAGCTCTCGTCCAATACTATTTCATATCCTGTTTTG
modifications: m6A in strand 1 (oNLF001), exact position not visible in printed string; presumably in GACGAG

This data set addresses T1, DnmA (WT) (Bacillus subtilis, UniProt O31504 1-879).
T1 sequence: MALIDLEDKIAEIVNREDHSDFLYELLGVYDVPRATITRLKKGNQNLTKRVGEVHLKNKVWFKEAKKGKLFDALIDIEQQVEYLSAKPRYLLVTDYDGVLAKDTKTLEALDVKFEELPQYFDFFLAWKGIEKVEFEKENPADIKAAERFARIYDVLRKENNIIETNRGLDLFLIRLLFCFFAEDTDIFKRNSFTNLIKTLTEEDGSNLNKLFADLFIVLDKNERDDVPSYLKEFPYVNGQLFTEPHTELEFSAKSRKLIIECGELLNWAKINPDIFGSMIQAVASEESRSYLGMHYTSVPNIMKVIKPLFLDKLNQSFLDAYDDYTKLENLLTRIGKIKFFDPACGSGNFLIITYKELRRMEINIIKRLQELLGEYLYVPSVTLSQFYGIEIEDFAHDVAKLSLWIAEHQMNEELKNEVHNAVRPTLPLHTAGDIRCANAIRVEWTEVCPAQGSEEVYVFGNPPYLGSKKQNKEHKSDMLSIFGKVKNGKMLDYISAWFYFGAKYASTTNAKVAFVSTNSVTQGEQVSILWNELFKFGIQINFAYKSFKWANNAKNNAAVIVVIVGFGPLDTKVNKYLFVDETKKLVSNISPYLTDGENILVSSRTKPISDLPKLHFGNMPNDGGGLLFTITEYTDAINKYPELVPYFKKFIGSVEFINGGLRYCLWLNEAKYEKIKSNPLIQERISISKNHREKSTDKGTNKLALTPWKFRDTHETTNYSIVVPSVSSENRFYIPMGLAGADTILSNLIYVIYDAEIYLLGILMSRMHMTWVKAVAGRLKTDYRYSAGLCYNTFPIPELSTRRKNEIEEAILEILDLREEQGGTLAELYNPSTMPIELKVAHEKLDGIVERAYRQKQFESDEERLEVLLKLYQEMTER
The experiment in a line: EMSA; EMSA: 5x buffer 500 mM Tris-HCl pH 8, 1.25 M NaCl, 10% glycerol (1x: 100 mM Tris, 250 mM NaCl, 2% glycerol), 5 nM probe, 30 min at 25 C; 6% native PAGE in 1x TBE on ice. The conditions noted are these: protein: recombinant; tags: His-SUMO tag (pE-SUMO) removed by SUMO protease; label: 5' IRDye700 on strand 1; 5' IRDye800 on strand 2; blunt. On the technique in general: A gel shift assay detects complexes by their altered migration in electrophoresis.
As for B1, the “apparent K (half saturation)” value came to 36.8 ± 14.2 nM. For the molecule B2, the “apparent K (half saturation)” value was found to be 321 ± 16.5 nM. To B3 belongs 156 ± 76 nM.

These data come from paper PMC9973331, “DNA Methylation and RNA-DNA Hybrids Regulate the Single-Molecule Localization of a DNA Methyltransferase on the Bacterial Nucleoid”.
